For this data set, the system named is F1*sub RNA substrate (template-directed ligation). As to the kind of experiment: fraction ligated after 30 min (ligated reads / total reads); higher = more ligase activity; sequences stand for … in GAGACCGCAACTGAAAAGTTGT…AGTTCTGCACGTAGAAGCAAAAGGC
Particulars: 42 °C. The method, boiled down: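 Ribozyme variants were transcribed with T7 from PCR-amplified oligo-pool templates and gel-purified. Ligated and unligated bands, separated on gel, were reverse transcribed with barcoded primers and sequenced on a MiSeq, with core bases filtered at quality ≥20. Fraction ligated per variant was computed as ligated reads divided by total reads.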
TACCTTGTCGTAAGCACTTTGGATGGGTTGA [3d536] displayed a fraction ligated of 0.668.

Consider “TATCACTGTCGTAAGACACTTTGGTGGGTTG [3d1456]”, for which the fraction ligated was found to be 0.343.

The sequence “TATCACTTGTCGTAAGACCTTTGGATGGTTA [3d2203]” registered a fraction ligated of 0.127.

The sequence “TATCACTTGTCGTAGACCTTTGGAGGGTTGA [3d2024]” returned a fraction ligated of 0.211.

As for TATCCTTTCGTAAGACACTTTGGATGGGTTGA [2d91], the fraction ligated is 0.786.

In turn, “TATCACTGTCGTAAGACCTTTGGAGGGTTGA [3d1429]” registered a fraction ligated of 0.133.

Consider “TATCATTTCGAAGACACTTTGGATGGGTTGA [3d1142]”, for which the fraction ligated was 0.812.

Regarding “TATCCTTGTCGTAAACACTTTGGATGGTTGA [3d1062]”, the fraction ligated came to 0.0319.

The sequence ATCACTTGCGTAAGACACTTTGATGGGTTGA [3d150] had a fraction ligated of 0.561.

Sequence “TATCACTTGTCGTAAGACACTTTGGAGGGTT [3d2279]” showed a fraction ligated of 0.0132.

On to “TATCACTTGTGTAAGACACTTTGGATGGTTGA [2d191]”, for which the fraction ligated came to 0.198.

The sequence “TATCATTGTCGTAAGACACTTTGGATGGTTG [3d1290]” showed a fraction ligated of 0.299.

The sequence TTCCTTGTGTAAGACACTTTGGATGGGTTGA [3d301] gave a fraction ligated of 0.782.

“TATCATTGCGTAAGACACTTGGATGGGTTGA [3d1165]” gave a fraction ligated of 0.773.

Sequence “TATCATTGTCGTAAGACTTTGGATGGGTTGA [3d1237]” gave a fraction ligated of 0.802.

As to “TATCACTCGTAAGACACTTTGGATGGGTTGA [3d1293]”, the fraction ligated amounted to 0.783.

On to TATCCTTCGTAAGACACTTTGGATGGGTTGA [3d950], for which the fraction ligated was 0.798.

In turn, TTACTGTCGTAAGACACTTTGGATGGGTTGA [3d279] showed a fraction ligated of 0.226.

In turn, TAATTGTCGTAAGACACTTTGGATGGGTTGA [3d508] gave a fraction ligated of 0.0528.

Consider TATACTGTCGTAAGACACTTTGGATGGGTTA [3d794], for which the fraction ligated came to 0.0511.

Turning to “TATCACTTGTCGTAAACACTTTGATGGGTTA [3d2092]”, the fraction ligated was determined as 0.0833.

“TATCACTTGTCGTAAGACACTTTGGAGGTTG [3d2278]” displayed a fraction ligated of 0.00797.

Take ATCACTTGTCGTAAACACTTTGGTGGGTTGA [3d216]: the fraction ligated was determined as 0.0249.

For “TATCATTGTCGAAGACACTTTGATGGGTTGA [3d1208]”, the fraction ligated was 0.772.

Take TACACTTGTCGTAAGACACTTTGATGGTTGA [3d724]: the fraction ligated amounted to 0.0498.

“TATCACTTGTCAAGACATTTGGATGGGTTGA [3d1815]” returned a fraction ligated of 0.829.

Turning to “TATCACTTTCGAAGACACTTTGGATGGGTTA [3d1504]”, the fraction ligated was determined as 0.382.

The sequence “TATCACTTGTCGAAGACACTTTGGATGGTTGA [2d218]” had a fraction ligated of 0.615.

Turning to ATCCTTGTGTAAGACACTTTGGATGGGTTGA [3d70], the fraction ligated came out at 0.734.

“TATCATTTCGTAAGACACTTTGGTGGGTTGA [3d1151]” came in with a fraction ligated of 0.1.

As for “TATCATTGTCGTAAGACCTTTGGATGGGTTA [3d1260]”, the fraction ligated turned out to be 0.697.

ACACTTGTCGTAAGACACTTTGGATGGGTTGA [2d2] returned a fraction ligated of 0.725.

The sequence “TATCACTTGTCGTAAGCACTTTGAGGGTTGA [3d2137]” had a fraction ligated of 0.086.

“TATCACTTTGAAGACACTTTGGATGGGTTGA [3d1465]” registered a fraction ligated of 0.819.

As to “TATCACTGTCGTAAGACCTTTGGTGGGTTGA [3d1428]”, the fraction ligated stood at 0.441.

For “TATCACTTTCGTAAAACTTTGGATGGGTTGA [3d1519]”, the fraction ligated is 0.823.

“TATCCTTGTCGTAAGACACTTTGAGGGTTGA [3d1106]” came in with a fraction ligated of 0.0265.

ATCACTTGTCGTAAGCATTTGGATGGGTTGA [3d223] displayed a fraction ligated of 0.731.

For the sequence “TATCATTGTCGTAAGAACTTTGGATGGGTTA [3d1253]”, the fraction ligated worked out at 0.623.

Sequence “TATCATTGCGTAAGACACTTTGGATGGGTTG [3d1171]” displayed a fraction ligated of 0.815.

With “TATCACTTGTCGTAAGCACTTTGATGGGTTG [3d2140]”, the fraction ligated was 0.677.

In turn, “TATCACTTTCGTAAGCACTTTGATGGGTTGA [3d1533]” registered a fraction ligated of 0.784.

Sequence “TATCACTTGTCGAAGACACTTGATGGGTTGA [3d1958]” showed a fraction ligated of 0.663.

In the case of “TATCACTTGTCGAAACACTTTGGATGGGTTA [3d1923]”, the fraction ligated was determined as 0.756.

In turn, “TATCACTTGTCGTAAGCACTGGATGGGTTGA [3d2128]” had a fraction ligated of 0.771.

For the sequence “TATCCTTGTCGTAAGACACTTTGGATGGTTG [3d1118]”, the fraction ligated came to 0.0169.

Regarding TTACTTGTCGTAAGACACTTTGGTGGGTTGA [3d293], the fraction ligated worked out at 0.031.

TACACTTGTCTAGACACTTTGGATGGGTTGA [3d633] gave a fraction ligated of 0.195.

As to TATCCTTGCGTAAGACACTTTGATGGGTTGA [3d994], the fraction ligated worked out at 0.815.

“TATCACTTGTCGTAAGAACTTGATGGGTTGA [3d2160]” registered a fraction ligated of 0.788.

Sequence “TATCACTGTGTAAACACTTTGGATGGGTTGA [3d1346]” showed a fraction ligated of 0.845.

For the sequence ATCACTTGTCGTAAGACATTTGGATGGGTTG [3d252], the fraction ligated worked out at 0.739.

Sequence TATACTTGTCGTAAGACACTTTGATGGGTTGA [2d84] gave a fraction ligated of 0.794.

Regarding TACACTTGTCTAAGACATTTGGATGGGTTGA [3d638], the fraction ligated was determined as 0.457.

ATCACTTGCGTAAGCACTTTGGATGGGTTGA [3d145]: the fraction ligated came out at 0.804.

The sequence “TATCACTTGTCGTAAGAACTTTGGTGGGTTG [3d2175]” yielded a fraction ligated of 0.0265.

For TACACTTGTGAAGACACTTTGGATGGGTTGA [3d618], the fraction ligated amounted to 0.345.

As to ATCCTTGCGTAAGACACTTTGGATGGGTTGA [3d69], the fraction ligated worked out at 0.768.

With “TATCCTTGTCGTAGACACTTTGGAGGGTTGA [3d1051]”, the fraction ligated was determined as 0.00532.

“TATCACTTGCGTAAGCATTTGGATGGGTTGA [3d1651]” yielded a fraction ligated of 0.83.

ATCACTTTCGTAAGAACTTTGGATGGGTTGA [3d130] showed a fraction ligated of 0.849.

TATACTTCGTAAGACACTTTGGATGGGTTGA [3d778] came in with a fraction ligated of 0.724.

Regarding TATCCTTGCGTAGACACTTTGGATGGGTTGA [3d987], the fraction ligated was 0.799.

TATACTTGTCGTAAGACACTTTGGAGGGTTG [3d944] registered a fraction ligated of 0.00819.

In turn, “TATCACTTGCGTAAGACACTTGGATGGGTTA [3d1686]” came in with a fraction ligated of 0.558.

The sequence “TATCACTGTCTAAGACATTTGGATGGGTTGA [3d1364]” gave a fraction ligated of 0.803.

In turn, “TATCACTTTCGTAAACACTTTGGATGGGTTG [3d1528]” yielded a fraction ligated of 0.776.

In turn, TACACTTGTCTAAGACACTTTGATGGGTTGA [3d640] showed a fraction ligated of 0.0986.

Turning to TACACTGTCGTAAGAACTTTGGATGGGTTGA [3d575], the fraction ligated turned out to be 0.162.

For the sequence TACACTTGTCGAAGACACTTTGGTGGGTTGA [3d654], the fraction ligated turned out to be 0.115.

For ATCACTTGTCGAAGAACTTTGGATGGGTTGA [3d188], the fraction ligated turned out to be 0.805.

As for “TATCACTTTCGTAAGAACTTTGGATGGTTGA [3d1544]”, the fraction ligated is 0.643.

As for “TATCACTTGTCAAGACACTTTGATGGGTTGA [3d1817]”, the fraction ligated worked out at 0.715.

Take “TATCACTTTCGTAAGCACTTGGATGGGTTGA [3d1532]”: the fraction ligated was 0.772.

The sequence TATACTTGTCGTAAGAACTTTGATGGGTTGA [3d905] displayed a fraction ligated of 0.794.

“TATCACTTGTCTAAGCACTTTGATGGGTTGA [3d1850]” gave a fraction ligated of 0.724.

Sequence “TATCACTGTCGTAAGACATTTGATGGGTTGA [3d1434]” yielded a fraction ligated of 0.79.

“TATCACTTGTGTAAGACACTTTGGATGGTTG [3d1807]” came in with a fraction ligated of 0.115.

Take ACACTGTCGTAAGACACTTTGGATGGGTTGA [3d27]: the fraction ligated is 0.238.

TTACTTGTCGTAAACACTTTGGATGGGTTGA [3d286] returned a fraction ligated of 0.00498.

“TATCATTGTCGTAAGACATTTGATGGGTTGA [3d1263]” showed a fraction ligated of 0.787.

TTCACTTGTCGTAAGAATTTGGATGGGTTGA [3d462] returned a fraction ligated of 0.693.

Turning to “TATCACTTGTCGAAGCACTTTGGAGGGTTGA [3d1931]”, the fraction ligated was determined as 0.108.

TATACTTGTCGAAGACACTTTGGTGGGTTGA [3d865] came in with a fraction ligated of 0.0282.

With TTCACTTGCGTAAGCACTTTGGATGGGTTGA [3d376], the fraction ligated is 0.804.

As for ATCACTGTCGTAAGAACTTTGGATGGGTTGA [3d114], the fraction ligated was 0.848.

“TATCCTTGTCGTAAGCACTTTGATGGGTTGA [3d1069]” registered a fraction ligated of 0.754.

“TATCACTTGTCGTAGACACTTTGATGGGTTGA [2d228]” registered a fraction ligated of 0.789.

On to “TATCATTGTCGTAAGACATTTGGTGGGTTGA [3d1264]”, for which the fraction ligated is 0.421.

Sequence TTCACTTGTCGTAAGACACTTGGAGGGTTGA [3d487] gave a fraction ligated of 0.0171.

The sequence “TATCATTGTCGTAAGACACTTTGGATGGGTTA [2d126]” yielded a fraction ligated of 0.67.

The sequence TTACTTGCGTAAGACACTTTGGATGGGTTGA [3d281] returned a fraction ligated of 0.0196.

On to TACATTGCGTAAGACACTTTGGATGGGTTGA [3d549], for which the fraction ligated turned out to be 0.0211.

As for “TATCACTTGTCGTAAGACACTTTGGTGGTTG [3d2274]”, the fraction ligated came to 0.0129.

TTCACTTGTCGAAGACACTTGGATGGGTTGA [3d422] gave a fraction ligated of 0.5.

In the case of “TATCACTTGTCGAAGAACTTGGATGGGTTGA [3d1936]”, the fraction ligated was 0.794.

The sequence “TATCATTGTCGTAAGACACTTTGGATGGTTA [3d1289]” yielded a fraction ligated of 0.203.

(Values after the supplement of paper PMC6755084.)
